Substitutions are numbered along the chain they refer to. Where “and” joins values, the source holds several entries; their conditions need not be identical. Equal values may be shown once.
Legend:
[1] = biological target: T1, C3aR I102^3.32A (Homo sapiens, UniProt Q16581, I102A); test: GloSensor-based cAMP assay, C3aR mutant I102A; assay type: cell-based; conditions: I1023.32A, single replicates
T1 construct: expressed in transfected cells; host or cells: HEK293T
T1 sequence (Q16581 1-482 I102A): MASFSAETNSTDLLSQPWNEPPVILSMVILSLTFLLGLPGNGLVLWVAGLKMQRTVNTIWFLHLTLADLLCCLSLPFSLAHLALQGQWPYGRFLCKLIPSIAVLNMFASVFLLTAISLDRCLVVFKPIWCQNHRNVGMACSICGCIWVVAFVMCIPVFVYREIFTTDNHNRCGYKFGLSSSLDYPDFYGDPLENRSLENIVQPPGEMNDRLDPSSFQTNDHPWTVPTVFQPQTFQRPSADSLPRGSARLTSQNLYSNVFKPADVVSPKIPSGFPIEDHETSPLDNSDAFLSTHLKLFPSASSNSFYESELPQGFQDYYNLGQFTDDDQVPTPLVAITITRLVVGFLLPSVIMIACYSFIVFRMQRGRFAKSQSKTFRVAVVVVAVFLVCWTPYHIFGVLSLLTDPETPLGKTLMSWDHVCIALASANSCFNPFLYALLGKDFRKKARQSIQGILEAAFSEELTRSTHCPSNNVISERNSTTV
Protocol: (§1) HEK293T cells were seeded on 6-well plates (NEST) and transfected with pGlosensor™-22F plasmids (Promega) and pcDNA3.1 plasmids encoding C3aR or its mutants an with N-terminal FLAG tag. After 48 h, cells were detached with Accutase solution (Sigma-Aldrich) and washed with PBS, and resuspended in assay buffer (CO2-independent medium with 0.5 mg mL^−1D-luciferin). 100,000–200,000 cells were seeded on 96-well white bottom plates (SPL) and incubated at 37 °C for 45 min followed by 45 min incubation at room temperature. After 90 min of incubation, basal luminescence signals were recorded. In total, 25 μl of test ligand with various concentrations and 1 μM Forskolin (Sigma-Aldrich) were treated to the cells and luminescence signals were measured by Tristar 2 LB 942 multimode reader (Berthold). […] Relative luminescence unit (%) was calculated with the signal of wells treated with vehicle as 0% and the signal of wells treated with 1 μM Forskolin as 100% (DiRaddo et al, [2014]). Nonlinear regression was performed using a three-parameter logistic equation.

[2] = biological target: T2, C3aR V103^3.33A (Homo sapiens, UniProt Q16581, V103A); test: GloSensor-based cAMP assay, C3aR mutant V103A; assay type: cell-based; conditions: for cAMP response (% Forskolin): single replicates
T2 construct: expressed in transfected cells; host or cells: HEK293T
T2 sequence (Q16581 1-482 V103A): T1 sequence (Q16581 1-482 I102A) with A102I, V103A
Protocol: as §1

Substance: C3a: anaphylatoxin C3a, natural peptide ligand of C3aR (a 77-amino acid peptide), Sigma-Aldrich
- cAMP response (% Forskolin) ([1]; Log[C3a (M)] -8): 18.09 % Forskolin and 20.55 % Forskolin and 21.20 % Forskolin and 43.71 % Forskolin
- cAMP response (% Forskolin) ([1]; Log[C3a (M)] -9): 79.37 % Forskolin and 75.76 % Forskolin and 87.66 % Forskolin and 96.25 % Forskolin
- cAMP response (% Forskolin) ([1]; Log[C3a (M)] -10): 100.22 % Forskolin and 97.06 % Forskolin and 101.20 % Forskolin and 92.74 % Forskolin
- cAMP response (% Forskolin) ([1]; Log[C3a (M)] -11): 101.22 % Forskolin and 97.60 % Forskolin and 96.34 % Forskolin and 96.47 % Forskolin
- cAMP response (% Forskolin) ([1]; Log[C3a (M)] -12): 100.09 % Forskolin and 99.44 % Forskolin and 103.06 % Forskolin and 100.29 % Forskolin
- Mean Diff. of pIC50, WT vs. V103A ([2]; Dunnett's multiple comparisons test, WT minus mutant): 0.086
- cAMP response (% Forskolin) ([2]; V103A, Log[C3a (M)] -7): 16.81 % Forskolin and 17.64 % Forskolin and 16.37 % Forskolin
- cAMP response (% Forskolin) ([2]; V103A, Log[C3a (M)] -8): 18.63 % Forskolin and 17.74 % Forskolin and 17.49 % Forskolin
- cAMP response (% Forskolin) ([2]; V103A, Log[C3a (M)] -9): 66.34 % Forskolin and 67.98 % Forskolin and 37.55 % Forskolin
- cAMP response (% Forskolin) ([2]; V103A, Log[C3a (M)] -10): 87.50 % Forskolin and 90.87 % Forskolin and 75.99 % Forskolin
- cAMP response (% Forskolin) ([2]; V103A, Log[C3a (M)] -11): 101.77 % Forskolin and 100.57 % Forskolin and 97.94 % Forskolin
- cAMP response (% Forskolin) ([2]; V103A, Log[C3a (M)] -12): 105.75 % Forskolin and 100.95 % Forskolin and 97.98 % Forskolin
- ΔpIC50 ± SE of Diff. ([2]; V103^3.33A relative to WT C3aR): -0.09 ± 0.05
- IC50 ([2]; V103^3.33A, dose-response plot, read-out: IC50): 3.53 nM
- pIC50 (Replicate) ([2]; V103^3.33A, individual replicates): 8.49 and 8.72 and 8.44 and 8.20
- pIC50 ± SEM (Mean) ([2]; V103^3.33A, mean of independent experiments): 8.46
- cAMP response (% Forskolin) ([2]; V1033.33A, Log[C3a (M)] -7): 19.41 % Forskolin and 19.52 % Forskolin and 19.42 % Forskolin and 22.72 % Forskolin
- cAMP response (% Forskolin) ([2]; V1033.33A, Log[C3a (M)] -8): 24.04 % Forskolin and 22.92 % Forskolin and 25.51 % Forskolin and 44.96 % Forskolin
- cAMP response (% Forskolin) ([2]; V1033.33A, Log[C3a (M)] -9): 89.16 % Forskolin and 71.89 % Forskolin and 87.77 % Forskolin and 103.75 % Forskolin
- cAMP response (% Forskolin) ([2]; V1033.33A, Log[C3a (M)] -10): 100.58 % Forskolin and 94.90 % Forskolin and 95.96 % Forskolin and 103.23 % Forskolin
- cAMP response (% Forskolin) ([2]; V1033.33A, Log[C3a (M)] -11): 100.23 % Forskolin and 96.38 % Forskolin and 92.81 % Forskolin and 102.90 % Forskolin
- cAMP response (% Forskolin) ([2]; V1033.33A, Log[C3a (M)] -12): 97.59 % Forskolin and 96.90 % Forskolin and 93.29 % Forskolin and 103.97 % Forskolin
